These results are taken from the Human Domainome abundance scans (Beltran et al. 2025).

The chains are these.
B1: Nanos homolog 2, residues 63 to 115; numbered along this chain, P60321 (parent)
chain: CNFCKHNGESRHVYSSHQLKTPDGVVVCPILRHYVCPVCGATGDQAHTLKYCP

± gives the uncertainty stated by the source.

In the data set the parent is B1. Kind of data set: abundance fitness (aPCA) (normalised: wild type 0, dead -1); higher = more abundant; growth selection in yeast, the domain comes from the species named. As to conditions: Homo sapiens.
For the variant H17C, the abundance fitness was -0.737 ± 0.16.

As for H33M, the abundance fitness is -0.028 ± 0.09.

For H33R, the abundance fitness worked out at 0.036 ± 0.05.

Regarding H33F, the abundance fitness was -0.534 ± 0.16.

As for V38C, the abundance fitness is -0.099 ± 0.18.

On to V38W, for which the abundance fitness is -0.222 ± 0.11.

V38G: the abundance fitness came out at 0.082 ± 0.066.

As for V38E, the abundance fitness was determined as 0.287 ± 0.1.

As for V38Q, the abundance fitness was 0.091 ± 0.1.

For V38K, the abundance fitness was found to be 0.314 ± 0.089.

As to C39L, the abundance fitness is -0.607 ± 0.094.

For the variant C39D, the abundance fitness was -0.837 ± 0.32.

Take C39T: the abundance fitness is -0.58 ± 0.08.

C39G: the abundance fitness was -0.731 ± 0.13.

C39H: the abundance fitness is -0.597 ± 0.22.

Take C39E: the abundance fitness was -0.484 ± 0.12.

In the case of C39V, the abundance fitness is -0.702 ± 0.21.

With C39K, the abundance fitness was -0.608 ± 0.11.

Regarding C39R, the abundance fitness is -0.696 ± 0.11.

On to C52W, for which the abundance fitness is -0.824 ± 0.12.

Take C52R: the abundance fitness is -0.506 ± 0.085.

For the variant C52A, the abundance fitness was -0.777 ± 0.2.

For the variant C52I, the abundance fitness is -0.731 ± 0.49.

Take C52Y: the abundance fitness was -0.497 ± 0.13.

Regarding C52G, the abundance fitness was -0.732 ± 0.09.

P29L: the abundance fitness was -0.978 ± 0.15.

Consider P29A, for which the abundance fitness is -0.786 ± 0.25.

With P29E, the abundance fitness is -0.195 ± 0.14.

For P29R, the abundance fitness was -0.503 ± 0.06.

In the case of P29N, the abundance fitness was -0.779 ± 0.4.

With P29W, the abundance fitness was -1.07 ± 0.35.

For the variant P29C, the abundance fitness was -1.07 ± 0.12.

For the variant G24L, the abundance fitness is -0.527 ± 0.064.

Take G24M: the abundance fitness was -0.461 ± 0.14.

Regarding G24S, the abundance fitness is -0.311 ± 0.092.

Take G24I: the abundance fitness is -0.983 ± 0.47.

Regarding G24V, the abundance fitness is -0.882 ± 0.081.

In the case of G24Q, the abundance fitness is -0.152 ± 0.064.

Consider G24D, for which the abundance fitness was -0.108 ± 0.065.

Take G24Y: the abundance fitness is -0.895 ± 0.25.

On to G24H, for which the abundance fitness is -0.381 ± 0.18.

With G24F, the abundance fitness was -1.02 ± 0.26.

Consider N2E, for which the abundance fitness is -0.663 ± 0.099.

Regarding N2W, the abundance fitness is -0.759 ± 0.08.

As for N2I, the abundance fitness is -0.157 ± 0.12.

As to N2Y, the abundance fitness is -0.254 ± 0.12.

With N2F, the abundance fitness is -0.324 ± 0.092.

As for N2P, the abundance fitness was -0.812 ± 0.19.

Take N2T: the abundance fitness was -0.408 ± 0.087.

With N2C, the abundance fitness was -0.701 ± 0.082.

For the variant N2R, the abundance fitness was -0.768 ± 0.1.

With N2D, the abundance fitness was -0.359 ± 0.13.

For G8L, the abundance fitness is -0.23 ± 0.065.

Take G8Q: the abundance fitness was -0.084 ± 0.098.

As for G8N, the abundance fitness was -0.161 ± 0.11.

As for G8K, the abundance fitness was -0.174 ± 0.13.

Regarding P53S, the abundance fitness is -0.439 ± 0.2.

As to P53G, the abundance fitness was -0.359 ± 0.16.

Consider H6S, for which the abundance fitness worked out at 0.039 ± 0.072.

Turning to H6L, the abundance fitness was -0.096 ± 0.088.

On to H6Q, for which the abundance fitness was determined as 0.011 ± 0.12.

Take H6K: the abundance fitness is 0.158 ± 0.059.

In the case of H6D, the abundance fitness was -0.093 ± 0.1.

On to H6W, for which the abundance fitness was -0.451 ± 0.11.

H6I: the abundance fitness was -0.062 ± 0.081.

Regarding D23R, the abundance fitness was -0.128 ± 0.071.

With D23I, the abundance fitness is -0.418 ± 0.13.

Turning to D23S, the abundance fitness was -0.141 ± 0.084.

Consider D23N, for which the abundance fitness was -0.044 ± 0.096.

D23C: the abundance fitness is -0.189 ± 0.072.

D23V: the abundance fitness was -0.22 ± 0.069.

As for D23L, the abundance fitness was -0.252 ± 0.088.

As to D23Y, the abundance fitness is -0.119 ± 0.12.

D23E: the abundance fitness was determined as 0.076 ± 0.1.

Turning to Y51N, the abundance fitness came out at 0.075 ± 0.13.

For the variant Y51W, the abundance fitness is -0.237 ± 0.098.

Regarding Y51F, the abundance fitness turned out to be 0.097 ± 0.12.

Consider Y51S, for which the abundance fitness was -0.104 ± 0.085.

Turning to Y51T, the abundance fitness was -0.097 ± 0.12.

On to Y51V, for which the abundance fitness was -0.071 ± 0.067.

For the variant Y51Q, the abundance fitness was -0.163 ± 0.11.

In the case of T42E, the abundance fitness was -0.128 ± 0.12.

As to T42Q, the abundance fitness was -0.023 ± 0.11.

Consider T42R, for which the abundance fitness was -0.151 ± 0.07.

In the case of T42A, the abundance fitness is -0.162 ± 0.078.

In the case of T42L, the abundance fitness was -0.294 ± 0.068.

Consider G43M, for which the abundance fitness was -0.414 ± 0.07.

G43E: the abundance fitness is -0.187 ± 0.12.

On to G43V, for which the abundance fitness was -0.679 ± 0.092.

As for G43H, the abundance fitness is -0.701 ± 0.3.

Turning to K5E, the abundance fitness was -0.24 ± 0.083.

On to K5N, for which the abundance fitness was -0.541 ± 0.12.

On to K5P, for which the abundance fitness was -0.691 ± 0.048.

Take K5A: the abundance fitness is -0.245 ± 0.057.

In the case of A46D, the abundance fitness was -0.426 ± 0.23.

Take A46Y: the abundance fitness is -0.47 ± 0.12.

In the case of A46L, the abundance fitness is -0.649 ± 0.11.

A46C: the abundance fitness was -0.816 ± 0.25.

Consider A46N, for which the abundance fitness was -0.694 ± 0.4.

Regarding A46K, the abundance fitness was -0.349 ± 0.094.

Turning to T21G, the abundance fitness was -0.004 ± 0.11.

For F3S, the abundance fitness is -0.623 ± 0.047.

On to F3D, for which the abundance fitness is -0.701 ± 0.1.

As for F3P, the abundance fitness was -1.3 ± 0.097.

On to V13A, for which the abundance fitness is -0.084 ± 0.077.

Regarding V13D, the abundance fitness was -0.013 ± 0.13.

With V13T, the abundance fitness worked out at 0.157 ± 0.085.

For V13G, the abundance fitness is -0.007 ± 0.087.

For V13L, the abundance fitness was -0.05 ± 0.074.

For V13N, the abundance fitness was 0.064 ± 0.099.

Take V13Q: the abundance fitness is -0.068 ± 0.1.

Take V13M: the abundance fitness is 0.056 ± 0.092.

For L31A, the abundance fitness was -0.117 ± 0.069.

As to L31C, the abundance fitness was -0.416 ± 0.14.

On to L31R, for which the abundance fitness was -0.415 ± 0.074.

L31T: the abundance fitness was -0.207 ± 0.13.

As for L31W, the abundance fitness was -0.566 ± 0.15.

Turning to L31D, the abundance fitness is -0.622 ± 0.23.

As to L31N, the abundance fitness was -0.547 ± 0.18.

In the case of L31E, the abundance fitness is -0.339 ± 0.078.

Regarding D44S, the abundance fitness was -0.294 ± 0.097.

As for D44G, the abundance fitness is -0.048 ± 0.059.

As to D44P, the abundance fitness is -0.274 ± 0.1.

For D44Y, the abundance fitness is -0.55 ± 0.14.

On to D44W, for which the abundance fitness was -0.429 ± 0.11.

For the variant D44N, the abundance fitness was -0.047 ± 0.1.

For the variant D44M, the abundance fitness was -0.271 ± 0.063.

Consider D44F, for which the abundance fitness turned out to be 0.009 ± 0.15.

Regarding C1S, the abundance fitness was -0.337 ± 0.17.

As to C1W, the abundance fitness is -0.941 ± 0.21.

Turning to C1F, the abundance fitness was -0.347 ± 0.22.

With C1G, the abundance fitness is -0.554 ± 0.071.

On to S10E, for which the abundance fitness came out at 0.025 ± 0.1.

Regarding S10D, the abundance fitness was -0.158 ± 0.14.

With S10F, the abundance fitness is -0.251 ± 0.082.

Regarding S10V, the abundance fitness was -0.296 ± 0.083.

As for S10I, the abundance fitness was -0.149 ± 0.069.

On to S10Q, for which the abundance fitness worked out at 0.066 ± 0.11.

Turning to S10C, the abundance fitness was -0.321 ± 0.099.

On to S15Y, for which the abundance fitness came to 0.068 ± 0.12.

Regarding S15N, the abundance fitness is -0.034 ± 0.093.

For S15K, the abundance fitness was -0.099 ± 0.079.

In the case of S15H, the abundance fitness was -0.095 ± 0.11.

L49I: the abundance fitness was found to be 0.251 ± 0.16.

For L49E, the abundance fitness is -0.095 ± 0.11.

Consider L49D, for which the abundance fitness is -0.046 ± 0.097.

Turning to L49R, the abundance fitness came to 0.185 ± 0.065.

For the variant L49Y, the abundance fitness amounted to 0.057 ± 0.15.

On to L49W, for which the abundance fitness is -0.021 ± 0.13.

L49T: the abundance fitness was 0.016 ± 0.11.

In the case of L49F, the abundance fitness is -0.076 ± 0.083.

Turning to N7C, the abundance fitness is -0.316 ± 0.097.

On to N7I, for which the abundance fitness was -0.432 ± 0.17.

For the variant N7P, the abundance fitness was -0.764 ± 0.093.

For N7F, the abundance fitness is -0.241 ± 0.11.

Take N7W: the abundance fitness is -0.47 ± 0.056.

As to N7Q, the abundance fitness was -0.263 ± 0.11.

For N7A, the abundance fitness was -0.213 ± 0.11.

As for N7T, the abundance fitness was -0.122 ± 0.1.

Consider N7D, for which the abundance fitness was -0.513 ± 0.1.

N7M: the abundance fitness amounted to 0.173 ± 0.12.

Turning to C28L, the abundance fitness was -0.962 ± 0.078.

Take C28W: the abundance fitness is -1.03 ± 0.26.

For the variant C28S, the abundance fitness is -0.501 ± 0.085.

For C28Q, the abundance fitness was -0.428 ± 0.2.

C28M: the abundance fitness is -0.524 ± 0.11.

As for C28P, the abundance fitness is -0.664 ± 0.18.
